Experimental data: the nanobody polyreactivity screen of Harvey et al. (2022)

Experiment: yeast display, Sf9 membrane polyspecificity reagent, FACS + sequencing; frameworks hold sequencing errors
Procedure, shortened: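 After 36–48 hours of galactose induction, yeast (Saccharomyces cerevisiae BJ5465) displaying a synthetic nanobody library were stained at 4 °C for 1 hour with 10% biotinylated, detergent-solubilized Sf9 membrane reagent. Streptavidin microbeads enriched the stained cells before FACS sorting into low and high (top ~1%) gates on anti-HA and streptavidin fluorescence. Each clone's polyreactivity label reflects its gate of origin.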

Sequence	polyreactivity (PSR sort gate)
QVQLVESGGGLVQAGGSLRLSCAASGSTFDIYAMGWYRQAPGKERELVAAITFSGGSTYADSVKGRFTISRDNAKNTVYLQMNSLKPEDTAVYYCAVDGGEFSSYGYWGQGTQVTVSS	low polyreactivity
QVQLVESGGGLVQAGGSLRLSCAASGFIFWDYAMGWYRQAPGKERELVAAISDSGGDTYYADSVKGRFTISRDNSKNTDYLQMNSLKPEDTAVYYCAADVELWVFRGQQYDYWGQGTQVTVSS	low polyreactivity
QVQLQESGGGLVQAGGSLRLSCAASGYISHADEMGWYRQAPGKEHELVASISNGGSTNYADSVKGRFTISRDNAKNTVYLQRNSLKSEDTAVYYCAAWTGQVDIHYYWGQGTQVTVSS	low polyreactivity
QVQLVESGGGLVQAGGSLRLSCAASGFIFPFNAMGWYRQAPGKERELVAAITSGGSTYYADSVKGRFTISRDNAKNTVYLQMNSLKPEDTAVYYCAKSWDRIGIWYRLEYWGQGTQVTVSS	low polyreactivity
QVQLVESGGGLVQAGGSLRLSCADSGYTFLDYAMGWYRQAPGKERELVAAINSGGSTYYADSVKGRFTISRDNAKNTVYLQMNSLKPEDTAVYYCAREDYVSYRLLYSLFDYWGQGTQVTVSS	low polyreactivity
QVQLVESGGGLVQAGGSLRLSCCASGFTFIVYSMGWYRQSPGKERELVAAITQSGGSTFYADSVKGRFTISRDNAKNTVYLQMNSLKPEDTAVYYCNAYRKFRYWGQGTQVTVSS	low polyreactivity
QVQLVESGGGLVQAGGSLRLSCAASGSIFDRYAMGWYRKAPGKERELVASITYSGGSTYYADSVKGRFTISRDNAKNTVYLQMKSLKPEDTAVYYCAKVIRLVGDYDYWGQGTQVTVSS	low polyreactivity
QVQLVESGGGLVQAGGSLRLSCAGSGFTLDGYVMGWYRQAPGQEREFVAAIRSSGGSTRYADSVKGRFTISRDNAKNTVYLQMNSLKPEDTALYYSAAVAYYWGYEQWYDYWGQGTQVTVSS	high polyreactivity
QVQLVESGAGLVQAGGSLRLSWAPSGITFLYYAMGLYRQAPGTEMELVATISISGGSTYYADSVKGRFTISRDNAKYTVYLQMTSLQPEESAVYYCAADDSVVTYSYDTWLVDYDYWGQATQVTVSS	low polyreactivity
QVQLVESGGGLVQAGGSLRLSCAASGSIFTNAMGWYRQAPGKERELVAAISSTGGSTYYADSVKGRFTISRDNAKNTVYLQMYSLKPEDTAVYYCAADHYGGRDYWGQGTQLTVSS	low polyreactivity
QVQLVESGGGLVHAGVSLRISCAASGRIFKQYAMGWYRQAPGNERELVAAISVRGGITYYADSVKGRFTISRYHAKNTVYLQMKSLNPEDTAVYYCAKRSYRNHTYDYWGQGTQVTVSS	low polyreactivity
QVQLVESGGGLVQAGGSLRLSCAASGRIFDGNAMGWYRQAPGKERELVAAISSSGGSTYYADSVKGRFTISRDNAKNTVYLQMNSLKPEDTAVYYCAYPLRRTWGNYRYGYWGQGTQVTVSS	high polyreactivity
QVQLVESGGGLVHAGGCLRLSFAASGFIFVVNPMGWYRPAPGKERELVAAINTSRGSTSYADSVKGRFTISRDNAKNTVYLQMNSVKPEDNAVYYCARDVWEKYRQSWGYVPLQGYDYCGQGTQVTVSS	low polyreactivity
QVQLVESGGGLVQAGGSLRLSCAASGFTFSWNVMGWYRQAPGKERELVAAISTSYGGTYYADSVKGRFTISRDNAKNTVYLQMNSLKPEDTAVYYCATLYYPNTSYEYYYWGQGTQVTVSS	low polyreactivity
QVQLVESGGGLVQAGGSLRLSCAASGSTFINYAKGWYRHAPGKERELVAAYADSVKGRFSISRDNAKNTVYLQMNSLKPEDTAVYYCAARGTIYVLGVPARPVPDGDYWGQGTQVTVSS	low polyreactivity
QVQLVESGGGLVQAGGSLRLSCAASGRIFPRNTMGWYRQAPGKEREMVAAISTRGGSTYYADSVKGRFTISRDNAQNTVYLEMNSLKPEDTAVDYSAAGRRFPAIYSTGNYWGQGTQVTVSS	high polyreactivity
QVQLVESGGGIVQAGGSLRLSCAASGFIFKRYAMGWYRQAPGKERELVAAITTSGGRTYYADSVKGRFTISRDNAKNTVYLLMNSLKPEDTAVYYCNADYGTYWWPYYYWGQGTQVTVSS	high polyreactivity
QVQLVESGGRLVQAGGSLRLSCAASGSNFETYDMGWYRQAPRKERELVAAITLSGGSTYYADSVKGRFTISRDNAKNTVYLQMNSLKPEDTAVYYCAADDSGVKVWEGDYWGQGTQVTVSS	low polyreactivity
LLQLVESVGGLVQAGGTLRLSCAASRSTFHANTLGGYRKAPGKERELVAAISIRGANTYYADSVKGRLTISSDNAKNTVYLQMNSLKREDTAVYYCATRVRKYSLRLDYWGQGTQVTVSS	high polyreactivity
QVQLVESGGGLVQAGGSLRLSCAASGSIFRRNAMGWYRQAPGKERELVATITSDGSTDYADSVKGRFTISRDNAKNTVYLQMNSLKPEDTAVYYCAADRGVYDPGDYWGQGTQVTVSS	low polyreactivity
QVQLEESGGGLVQAGGSLRLSCAASGRTFRYYAMGWSRQAPGKERELVAAISWSGSSTYYADSVKGRFTISRDNAKNTVYLQMNSLKAEDTAVYYCNAKGVRGKYFDYSRVSAYDYWGQGTQVTVSS	low polyreactivity
QVQLLESGGGLVQAGGSLRLSCAASGRIFASYAMGWYRQAPGKARELVAAISTGGNTYYADSVKGRFTISRDNAKNTVYLQMNSLKPEDTAVYDCAALSGAHEHFVEYDYWGQGTQVTVSS	low polyreactivity

Sequence	polyreactivity (PSR sort gate)
QVQLVESGGGLVQAGGSLRLSCAASGSIFFVNAMAWYRQAPGKERESVAGITGGGSTYYADSVKGRFTISRDNAKNTVYLQMNSLKPEDTAVYYCNKKAYRKTGMDYWGQGTQVTVSS	low polyreactivity
QVQLVESGGGVVQAGGSLRLSCAASGFIISYNVMVWYRQAPGKERELVAAISSSGGSTYYADSVKGRFTISRDNAKNTVYLQMNSLKPEDTAVYYCATRVSRSFRAYDYWGQRTQVTVSS	high polyreactivity
QVQLVESGGGLVQAGGSLRLSCAASGSTFRWNTMGWDRQAPGKEREMVAAISYSGGITYYADSVKGRFTISRDNAKNTVYLQMNSLKPEDTAVYYCNLVAYRSYLSSYDYWGQGTQVTVSS	high polyreactivity
QVQLVDSGGGLVQAGGSLRLSCAASGFIFQANAMGWYRQAPGKERELVAAIDDGDSTYADSVKGRFTISRDNAKNTVYLQMNSLKPEDTAVYYCATRRNRSYDYWGQGTLVTVSS	low polyreactivity
QVQLVESGGGLVQAGGSLRLSCAASGSTFYYYAMGWYRQAPGKERELVAAISWSGGSTYYADSVKGRFTISRDNAKNTVYLQMNSLKPEDTAVYYCNKYVRFRGGAYVTGYDYWGQGTQVTVSS	high polyreactivity
QVHLVESGGGLVQAGGSLRLSCAASGSTIRFNAMGWYRQAPGKERELVAAISGSGGSTYYADSVKGRFTISRDNAKKTVYLQMNSLKPEDTAVYYCAASASSRSYFKSYYWGQGTQVTVSS	high polyreactivity
QVQLVESGGGLVQAGGSLRLSCAASGSTFYINALGWYRQAPGKESELVAAITWNSDSTYYADSVKVRFTISRDNSKNTVYLQMNSLKPEDTAVYYCNHDRIIWGRLYEEGDYWGQGTQVTVSS	low polyreactivity
QVQLVESGGGLVQAGGSLRLSCAASGRTFPYYAMGWYRQAPGKERELVAVITSGASTYYADSVKGRFTISRDNAKNTVYLQMNSLKPEDTAVYYCNARYSWKYDYWGQGTQVTVSS	high polyreactivity
QVQLVESGGGLVQAGGTLRLSCAASGSTFSYNAMGWYRQAPGKERELVAAISGSGGRTYYADSVKGRFTISRDNAKNTVYLQMNSLKPEDTAVYYCAARVGAGWSPKYDYWGQGTQVTVSS	high polyreactivity
QVQLVESGGGLVEAGGSLRLSCAASGSTINYNAMGWYRQAPGKERELVAAIDSGVSTNYADSVNGRFTISRDNAKNTVYLQMNSLKPEDTAVYYCAVGGAGSDDYWGQRTQVTVSS	low polyreactivity
QVQLVESGGGLVQAGGSLRLSCAASGFIYFGNAMGWYRQAPGKERELVAAINSNGSSTYYADSVKGRFTISRDNAKNTVYFLMNSLQPEDTAVYYCAKKISVHEGAWPSNPDGDYWGQGTQVTVSS	low polyreactivity
QVQLVESGGGLVQAGGSLRLSCAASGIIFHYYAMGWYRQAPGKEREFVASISFSGASTYYADSVKGRFTISRDNAKNTVYLQMNSLKPEDTAVYYCAARYLYGPKYYYCGQGTQVTVSS	high polyreactivity
QVQLVESGGGLVQAGGSLRLSCAASGSIFTVYAMGWYRQAPGKERELVAAITRNGGRTYYADSVKGRFTISRDNAKNTVYLQMNSLKPEDTAVYYCAAPGLYSRLDYWGQGTQVTVSS	high polyreactivity
QVQLVESGGGLVQAGGSLRLSCAASGRIFGTHDMGWYRQAPGKESELVAAIRATSGSTYYADSVKGRFTISRDNAKNTVYLQMYSLKPEDTAVYYCAAEIWRYNSYIKYWHRVDYWGQGTQVTVSS	high polyreactivity
QVQLVESGGGLVQAGGSLRLSCAASGSIFGPYAMGWYRQAPGKERELVASITNSGSTYYADSVKGRFTISRDNAKNTVYLQMNSLKPEDTAVYYCAVDERTWINDPEEYDYWGQGTQVTVSS	low polyreactivity
QVQLVESGVGLVQAGGSLRLSCAASGSTFSAYTMGWYRQAPGKERELVAAIRFDGGRTYYADSVKGRFTISRDNAKNTVYLQMNSLKPEDTAVYYCRAWQSYSYDYSGQGTQVTVSS	high polyreactivity
QVQLVESGGGLVQAGGSLRLSCAASGIIFSYYAMGWYRQEPGKERELVAAIDSGGSTYYADSVKGRFTISRDNAKNTVYLQMNSLKPEDTAVYYCNADTARGVPVFPHDYWGQGTQVTVSS	low polyreactivity
QVQLVESGGGLVQAGRSLRLSCAASGFIFSGNVMGWYRQAPGKERELVAAITSSGGSTYYADSVKGRFTISRDNAKNTVYLQMNSLKPEDTAVYYCATRYGGRYYWGQGTQVTVSS	high polyreactivity
QVQLVESGGGLVQAGGSLRLSCAASGSTFRNYAMGWYRQAPGKEREFVAAITWSGGRTYYADSVKGRFTISRDNAKNTVYLQMNSLKPEDTAVYYCAARYRRGYDYWGQGTQVTVSS	high polyreactivity
QVQLVESGGGLVQAGGSLRLSCAASGFIFAKYAMGWYRQAPGKERELVAAITSGGSTNYADSVKGRFTISRDNAKNTVYLQMNSLKPEYTAVYYCNRGFDWWYRYRHYDYWGQGTQVTVSS	low polyreactivity
QVQLVESGGGLVQAGGRLRLSCAASGIIFRVYTMGWYRPEPGKERELVATISLGVARTYYADSVKGRFTISRDNAKYTVYLQMNSLKPEDTAVYYCAKRRGGQGNYWGQGTQVTVSS	high polyreactivity
